experiment: soluble on expression in E. coli; label from the status in PepcDB or PDB records

Row | Sequence | soluble on expression in E. coli
1 | MYKILEIADVVKVPPEEFGKDLKETVKKILMEKYEGRLDKDVGFVLSIVDVKDIGEGKVVHGDGSAYHPVVFETLVYIPEMYELIEGEVVDVVEFGSFVRLGPLDGLIHVSQIMDDYVSYDPKREAIIGKETGKVLEIGDYVRARIVAISLKAERKRGSKIALTMRQPYLGKLEWIEEEKAKKQNQE | soluble
2 | MYKPITFSLKYIFKTAGKVEVQGREKLPEGGPYVVACTHTSFMDVLMLATGMYPTEIHYMAKKELFEGKFKNWFFKNVNAFPVDRANPGPSTLKIPSRLLKEGKVVGIFPSGTRSTEDVSLKAGAVTIAMRSNVPLIPAAYIGPSSVKELIKGKRAQLIFGDPIQIDAEEQIDRKTAMKMMTDQLNEKFEGLKEALQSNQK | not soluble
3 | MYLMSSIPPLIDLLPHDTPLALVDELIEVNDLSVHCQVTIGENNVFFDHETKTVPAWVGIEFMAQSIAGWSGYHAWKKGNKSPIGFLLGSRKYQAECSEFQQGDTLDIFAEQVLENNGMAVFSCYIEHKGQQLASSQLNVFVPTEEKLEELLTPKQLEHHHHHH | soluble
4 | MYLTKEEELALSGEYGPAIQKAMEILVALGDIYNADRLIPIKSAQIAGVSYKNIGDEGIEFLRDFVEAGAKVSVYTTLNPAGIGDEDFMEKQAEIIELYRKMGVEITSTCTPYYGPNLPKYGDHLAWSESSAVIFANSVLGARTNREGGPSSLAAAIVGKTPNYGLHLEENRKATHIIEVKDKLKSRTEYSLLGYKIGEIVENGVPYIRGIAPTTEDLKALGASMAASGGVGLYHVEGSTPEWRGAIVDKIEKIEIGRKDLEDVRQRFSVDWGDVDIILLGCPHASLREIKEIAELLRMRDKPLKIPLFITVSRGIKALADYLGYTEIIERYNGKLLPDVCLVVSPIKEWYSGVATDSGKAAFYLKSFGLKVLLDTTENIIMGAPLEHHHHHH | not soluble
5 | MYNDDELTEFMDFLVEQTKDSIYPMVAAKVFKQFPNRRLIPKDKRYQRFVLQLAPKMNDWNNYSIEARIRLMYALRGKVEDDFLARIEAHGTVQLNEKQRISKFTANDGTFFLEDDRKRLSLDATRLEFVKLMGFLIEKTKDAVEPLPNTKLIFQEFSQIEPVKKPNDTDIMYKFRSSLAPYMDKWNDYSIEDRVRLMFALGGKIKDGFLRTIETHGTLQLDDKRRITKYVSNDGNFKLEGIRRNVHKKEATGPEYTRFMDFLIKTTKEAVEPMRVWLVHNEFKRQEGRKFSKSGYAKRFHKKLAPNMSKWTNYKIEERTRMMFAMKGKVESDFLAQIEESGKVQLDENHLIVKYTSKNRKIKLGGETRLVEKKKRKSTNYHKMHQKRRKIIRSVTDETSLVAKWKRKSDSYYEMYQKRRKIGEKELSDTAEVEEVAPYDSDYGNVYVENLEAEDQDTQLNPFNAMSDLTTDGPSSNAHDLTMWPNDDPKQEPVFENIFIQNQYFPPEIEEVPNQGVYHVEPETKLSYINTNPGSSVTESGGIKLHKFLNLLELILTSLESDTLDDLLNDIEGIRVRINDEILPPELVITALQTFLLGITRKSRSAASAENKSSHECLRIFKYSLPWLRSPLLWELQQRVEEEIESHVIGGKIILVADVQQGIRNILFAVSN | not soluble
6 | MYNDVLFPGEDINKPISIAAANRFVNRIRGGMDLGYWRTHDFRRTLVTRLSEMNVEPHVTERMLGHELGGIMSVYNKHDWIEAQRKAYELHADKLFWHIRSISD | not soluble
7 | MYNLLTKQEIQLLSLIEYLYDSKEKVPMQVLRRKYEFSHYNINNLLNQLTLLISRVNTHENVHIRIINNQQSIELVADENIPIELMKEAVVRGSLTYMLALDLLLKRYTSAKDFCEEHFINFSIFKQVSDRLNNHLARFNCYLNLKRREKICGNEKDFRSFFYSLFFISGTSLVPFLSKTNQAQLQNFIEIIKNRYPYFTYTDLRKLKLIMSIGLLRYQSGFTITNYPEVAAINLAFPYSEFQLLVNDCFIDEQKEPDTWQAEIHFYYDFFSTLTMYSLVQMETINFANLAIMGMDNSPHATWIFEKCTQLQLDLSAIEVVFLLVNLSNASERLIHFPVEEELSYEVANVSLYEKQYPNVSRTTNYFLKRLPFDKQHPLDALFKETIFLIIRSVLLNKQIPVKILLHSSINQIQENWLAKEINNYCDVPLKFVNHIQEVPDLVITDKNNPLFHASKTFYWHPVPYLDEYYNLKQVVRKIYFAKLRGENSLEGIGC | not soluble
8 | MYQDLIRNELNEAAETLANFLKDDANIHAIQRAAVLLADSFKAGGKVLSCGNGGSHCDAMHFAEELTGRYRENRPGYPAIAISDVSHISCVSNDFGYDYIFSRYVEAVGREGDVLLGISTSGNSGNVIKAIAAAREKGMKVITLTGKDGGKMAGTADIEIRVPHFGYADRIQEIHIKVIHILIQLIEKEMVK | not soluble
9 | MYQSYPQQQQPGYQPQQPSHPIVGAGAAPTMAPQNPYGQQPFQPQFQQGQYQQPSGQQYQSMQQQFQSPQQQAPTQPTHPDRESYQTALPANVTPGWNDPPSMLPSAGTTPNRLSNMRRRPVDPSISGNVGYGTSSQTSNPYGASASPYGAPQQNPQQYQEQPQSYQTYQQPQQQQPQYGQQQNPQQFGQQYPGAGAPHQQQHYGM | not soluble
10 | MYQVIRMYGAMEPWWFLDDWKEDITKVLEFDNYHEALQCYQKEWAKLRRRYSDFNSHGDIMTAFWNKQDQHWCEECGDYVQRYHSLALLTDWQETPSSWFRPTFTKQLEHHHHHH | soluble
11 | MYRTHYSSEITEELNGQKVKVAGWVWEVKDLGGIKFLWIRDRDGIVQITAPKKKVDPELFKLIPKLRSEDVVAVEGVVNFTPKAKLGFEILPEKIVVLNRAETPLPLDPTGKVKAELDTRLNNRFMDLRRPEVMAIFKIRSSVFKAVRDFFHENGFIEIHTPKIIATATEGGTELFPMKYFEEDAFLAESPQLYKEIMMASGLDRVYEIAPIFRAEEHNTTRHLNEAWSIDSEMAFIEDEEEVMSFLERLVAHAINYVREHNAKELDILNFELEEPKLPFPRVSYDKALEILGDLGKEIPWGEDIDTEGERLLGKYMMENENAPLYFLYQYPSEAKPFYIMKYDNKPEICRAFDLEYRGVEISSGGQREHRHDILVEQIKEKGLNPESFEFYLKAFRYGMPPHGGFGLGAERLIKQMLDLPNIREVILFPRDRRRLTP | soluble
12 | MYSIKMRSSNQDVHISGAETICEFDKIEQTVQRFYNKGFFHENGQPDFLNIKIQKIMEPIQQIKALQIIEDDKANLQHLTQECGVTEQALNQGMTYIKNETVYTGAIILSAISGKRLDSFGQRGIRATHFSFEDINNKGDLNERVTDALAIASCINAHPYVKGELCVSDDLTYTTGYFAAAKIGYHRLFDIKPVNTRYGGRIIFVDDCIDLNHYISFLESTPKQVVYETV | not soluble
13 | MYSVSLMHGNPKTAIRPAGWHYGRRVYWIEGLPLIGHIAFGVIDRGTNVLQVRPSTLCFHNCIFCSVDAGPSSRRRRSEYTVEWEQLVVWVEKVARVKGGGLEALIDGVGEPLTHPHITRIIKALKGLDAIERVALETHGGSLSKSLARALEKAGLDRINLSVDAADPRLARSLVGVDWYGVDRVLKTAEWIIANTSIDVVLTPVVLPGVNEKEMATLVHWARRVGAGRKSGWPTGVLIQKFEIHKYGRKPSTVKSVWGWRRFYTWLARLEKETGYRLLVDPGEIGFKPRPRVEKPFERGDRVTLVLVGPGWHKGELLAVDRGWRRVVALYGLTEGEALTPGAEVEARIVRDKDNIFIAVPYAAALEHHHHHH | soluble
14 | MYTHLTDMTNMLDTAKIGTSDGTFPLANAQNLQKAVEELQTGISKGMAGYFVLQYEIDNYCIAAEKAIAEFQDSYQQTLQPGTPAELKVFGIDGKGRIEFGSDPAYGGGNTFTVESWVKYDAGFFESGIGSFLSTFDGKQPNEGWMINFLGSNLRTTIGMGPQEGRVLEEGRAYPDNFGKWNHVVTVWDNTLPEGQLKMYVNGELFFSKTNDVKNDAGVLQNYMPNTRNQNMWAFQEPTDNSRCMTGFIKKFRMWSTAKSANEVKTLMNSDVTGTESGLVCAWDFTTVVEDVTNIPDKTGKHVAKIVGNYKWFKVEN | not soluble
15 | MYTIAALYHFTRFADPADLKPALLDLCLAQGVKGTLLLAKEGINGTIAGPRAGIDAVLAHIRALPGCSDLEWKEATSDHPPFGKMKVRLKQEIVTMGQPDVDPRARVGHYVEPEDWNDLIRSDDVVLIDTRNDYEVAIGTFEGAIDPMTESFRDFPAWWEANKERFHNKRVAMFCTGGIRCEKSTNYLLGQGVEDVYHLKGGILRYLEEVPAENSTWQGECFVFDNRVSVGHGLVEGPHELCHGCRRPILPEDRNRPEYEHGVSCHLCIDETSEADKMRFRERQKQIALARARGEDHLATH | not soluble
16 | MYVIDTSAIISRNLNLLEGDLMFPSSVIGEIKKGKLRYMIDVLLPMIRVASPDHEYLKIVEETAAKTGDLMNLSQTDKDVLALALQYDATIVTDDYSIQNVASYLNLGFLNA | soluble
17 | NDDKEAKKEAQEKEKNTPNGLVYTNLDFDSFKATIKNLKDKKVTFKEVNPDIIKDEVFDFVIVNRVLKKIKDLKHYDPMIEKIFDEKGKEMGLNVEIQINPEVKDFFTFKSISTTNKQRCFLSLRGETREILCDNKLYNMLLAVFNSYDPNDLLKHISTVESLKKIFYTITCEAVY | soluble
18 | NDNSPRFEKSVYEADLAENSAPGTPILQLRAADLDVGVNGQIEYVFGAATESVRRLLRLDETSGWLSVLHRIDREEVNQLRFTVMARDRGQPPKTDKATVVLNIKDENDNVP | soluble
19 | NHVRRVQELSKFFAEEMGLDEDLVHKIYLYAPLHDIGKIKVPKEILNKKGKLTAEEWEIMKKHTIWGGELLSGRKELEVARNIALYHHESYDGTGYPFGLKDDEIPIEAQIVKIVDVYDAL | not soluble
20 | NKDFQWDFSLNWSKSVKKLTEIYGGQKKFGDLKVGDRADAFYGSQWQKSADGELILDENGMPTKDAYKQYLGHLDPNFRMGMQNTFRYKDFTLSVDLDGAYKGVIYSVLSEKLWWGGKHPESVEYRDAQYAVGHPIYVPNGVVVTGGELKRDIDGNVISDTRTYKRNTTAVDWQQWCQNYPYQAYVSSKENAKFANVFDRSYIKLRRVALTYNFTKLLSKQSPVKGLTATVFGNNLAVWKKVPFVDPDYTGDSNDGGANDPTARYIGMGVNIKF | not soluble
21 | NKDNPYIKPDDPRPVVLFCSTFSPSLTCAPEVFEQIKALSQKSQWRWLVQFHPKMKPSIVEQYKTLENENLQFVETDNVIPLLQAGDVMLCDTSSILLMFLMQRKPVVTFKNQSPKAHLIDINRVEEIEPAITRALSRTDDLMAHIHDYCNQIHPTGDGQSSQRVLAATDA | not soluble
22 | NLHGMEQIEFQVSAHRDLPLRPLNKVASGGELSRISLAIQVITSKAGTVPTLIFDEVDTGIGGRIAAIVGKLLQQLGKTRQVMSITHLPQVAARGDHHWRVSKTSETED | not soluble
23 | NLLIQELCQAVINHFVRYLNINLGALYVSNEVESSLHLLSGYALSKAKKEMPAIRFGDGIVGQVAQERRLLVLENIPGENFVLESGLGDIQPSHILIAPILYQERMLGVIELGSLEPFTENHKEYMSHVMDSIAIAITSAHAREKVRELLEETQR | not soluble
24 | NLYFQGHMDNVDELRKIENKSSFVSADNMPEYVKGAFISMQDERFYNHHGFDLKGTTRALFSTISDRDVQGGSTITQQVVKNYFYDNDRSFTRKVKELFVAHRVEKQYNKNEILSFYLNNIYFGDNQYTLEGAANHYFGTTVNKNSTTMSHITVLQSAILASKVNAPSVYNINNMSENFTQRVSTNLEKMKQQNYINETQYQQAMSQLN | soluble
25 | NPHMWWLQDADPENNSRQASPSQESINQLVYMGFDTVVAEAALRVFGGNVQLAAQTLAHHGGSLPPDLQF | soluble
26 | NSSFTPSTVPNINFSGLNGGITNTATNALRPSDIFGANA | soluble
27 | NSYVFDLPHNQHKLTKFAHKGILFNSVHLERDGTLKFPQLKQSKQKPAVSSELKTAIKRIKAGYKKVKPNYKKRQKQQIAELFAKRKQRRSWKNF | not soluble
